# Target: PDZ1/2 domain, P78352
# Sequence (P78352 61-249 limits assumed): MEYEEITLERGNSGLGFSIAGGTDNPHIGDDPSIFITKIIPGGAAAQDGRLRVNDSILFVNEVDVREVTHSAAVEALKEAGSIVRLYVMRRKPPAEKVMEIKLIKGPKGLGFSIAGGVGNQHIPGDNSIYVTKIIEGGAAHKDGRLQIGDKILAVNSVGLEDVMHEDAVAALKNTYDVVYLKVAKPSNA
binder,measurement,value
YGRKKRRQRRRYEKLSSIESDV (modifications not checked) [chimeric peptide YE-NA-1],Kd,54.4 nM
